1 substance from patent US20160136234A1 can be followed below.

Some targets named below: PAK4 (h) (human) (UniProt O96013); EphB4 (h) (human) (UniProt P54760); Ron (h) (human) (UniProt Q04912); PKCα (h) (human) (UniProt P17252); cKit(V654A) (h) (human) (UniProt P10721); MLCK (h) (human); JNK1α1 (h) (human) (UniProt P45983); FGFR2 (h) (human) (UniProt P21802); BTK(R28H) (h) (human) (UniProt Q06187); CDK1/cyclinB (h) (human) (UniProt P06493); Ros (h) (human) (UniProt P08922); LOK (h) (human) (UniProt O94804); CHK2(I157T) (h) (human) (UniProt O96017); EphB1 (h) (human) (UniProt P54762); Lyn (h) (human) (UniProt P07948); AMPKα2 (h) (human) (UniProt P54646).

Holding throughout (experiment): cell-based or functional assay
Another assay addresses T1, TAO2 (h) (human) (UniProt Q9UL54).
T1 sequence (looked up): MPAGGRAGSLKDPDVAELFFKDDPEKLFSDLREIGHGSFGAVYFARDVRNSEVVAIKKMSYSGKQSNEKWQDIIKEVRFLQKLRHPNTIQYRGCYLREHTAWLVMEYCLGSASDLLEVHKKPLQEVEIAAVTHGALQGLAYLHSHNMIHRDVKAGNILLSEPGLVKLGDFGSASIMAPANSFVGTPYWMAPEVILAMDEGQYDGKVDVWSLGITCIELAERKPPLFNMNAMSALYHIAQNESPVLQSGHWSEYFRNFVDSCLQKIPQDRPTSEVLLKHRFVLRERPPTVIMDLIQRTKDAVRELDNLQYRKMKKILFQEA

In another assay the target is T2, MST2 (h) (human) (UniProt Q13188).
T2 sequence (looked up): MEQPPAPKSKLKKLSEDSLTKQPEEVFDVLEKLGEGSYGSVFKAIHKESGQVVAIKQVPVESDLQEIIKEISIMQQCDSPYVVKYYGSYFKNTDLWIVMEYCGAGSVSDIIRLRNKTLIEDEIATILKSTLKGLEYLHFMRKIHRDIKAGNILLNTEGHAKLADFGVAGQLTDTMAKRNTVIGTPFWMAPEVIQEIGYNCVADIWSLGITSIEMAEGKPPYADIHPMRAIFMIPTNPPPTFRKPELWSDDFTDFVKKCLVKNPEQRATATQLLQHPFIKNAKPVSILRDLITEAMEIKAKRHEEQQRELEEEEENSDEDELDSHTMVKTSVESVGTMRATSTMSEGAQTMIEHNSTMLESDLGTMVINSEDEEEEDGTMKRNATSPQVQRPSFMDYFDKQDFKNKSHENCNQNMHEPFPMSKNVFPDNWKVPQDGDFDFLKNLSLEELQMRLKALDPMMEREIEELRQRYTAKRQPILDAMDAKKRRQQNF

Another assay deals with T3, Aurora-A (h) (human) (UniProt O14965).
T3 sequence (looked up): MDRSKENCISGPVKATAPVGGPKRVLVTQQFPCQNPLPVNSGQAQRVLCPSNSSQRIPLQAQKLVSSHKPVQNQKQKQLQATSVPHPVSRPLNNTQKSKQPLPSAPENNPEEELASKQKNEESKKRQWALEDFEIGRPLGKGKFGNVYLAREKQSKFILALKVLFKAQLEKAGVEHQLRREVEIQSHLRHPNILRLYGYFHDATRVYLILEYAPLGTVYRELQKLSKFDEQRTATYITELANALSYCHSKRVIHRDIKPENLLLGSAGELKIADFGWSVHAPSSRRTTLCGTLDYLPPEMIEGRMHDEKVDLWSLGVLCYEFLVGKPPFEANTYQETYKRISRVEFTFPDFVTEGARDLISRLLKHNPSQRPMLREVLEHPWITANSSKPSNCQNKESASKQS

Assay [1] deals with Mitogen-Activated Protein Kinase-Activated Protein Kinase 3 (human) (UniProt Q16644).

Sequence of cKit(V654A) (h) (human) (P10721 544-976 V654A): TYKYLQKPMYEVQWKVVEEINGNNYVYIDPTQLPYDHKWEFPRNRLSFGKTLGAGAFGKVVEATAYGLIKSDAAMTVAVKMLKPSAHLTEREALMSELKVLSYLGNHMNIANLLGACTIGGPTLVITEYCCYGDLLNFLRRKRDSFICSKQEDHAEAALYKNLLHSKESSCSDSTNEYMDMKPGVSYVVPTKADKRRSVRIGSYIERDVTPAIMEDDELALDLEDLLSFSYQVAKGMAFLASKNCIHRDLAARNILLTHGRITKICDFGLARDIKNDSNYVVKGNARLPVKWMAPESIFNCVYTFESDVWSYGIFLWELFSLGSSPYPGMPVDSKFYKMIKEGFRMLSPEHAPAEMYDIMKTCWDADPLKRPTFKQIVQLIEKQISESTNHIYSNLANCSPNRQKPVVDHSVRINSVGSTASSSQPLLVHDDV
Sequence of Ros (h) (human) (P08922 1883-2347 limits assumed): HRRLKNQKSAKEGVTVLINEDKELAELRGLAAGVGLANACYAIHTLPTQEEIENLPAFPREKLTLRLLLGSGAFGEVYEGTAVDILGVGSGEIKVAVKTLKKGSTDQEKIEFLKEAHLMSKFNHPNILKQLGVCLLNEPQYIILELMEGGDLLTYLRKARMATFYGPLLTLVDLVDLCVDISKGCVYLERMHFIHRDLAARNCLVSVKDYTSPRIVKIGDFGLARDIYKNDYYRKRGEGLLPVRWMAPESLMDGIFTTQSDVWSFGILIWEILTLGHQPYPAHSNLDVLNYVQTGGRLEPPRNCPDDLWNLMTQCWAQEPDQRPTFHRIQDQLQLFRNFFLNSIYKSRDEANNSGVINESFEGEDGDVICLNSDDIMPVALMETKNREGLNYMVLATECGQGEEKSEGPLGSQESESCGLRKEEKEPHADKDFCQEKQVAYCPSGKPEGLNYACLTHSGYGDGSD
Sequence of EphB4 (h) (human) (P54760 561-987 limits assumed): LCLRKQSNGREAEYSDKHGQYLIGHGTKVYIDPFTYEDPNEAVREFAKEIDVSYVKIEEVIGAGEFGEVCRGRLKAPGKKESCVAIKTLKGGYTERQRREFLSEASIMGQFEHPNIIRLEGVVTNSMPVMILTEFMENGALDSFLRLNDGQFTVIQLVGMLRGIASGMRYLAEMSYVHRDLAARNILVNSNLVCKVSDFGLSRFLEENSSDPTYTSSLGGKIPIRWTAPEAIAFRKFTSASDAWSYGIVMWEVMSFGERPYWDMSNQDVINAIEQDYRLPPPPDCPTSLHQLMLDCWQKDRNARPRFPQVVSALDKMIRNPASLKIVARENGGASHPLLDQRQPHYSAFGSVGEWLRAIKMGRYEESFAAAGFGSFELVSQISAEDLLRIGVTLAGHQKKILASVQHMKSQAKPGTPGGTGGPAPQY
Sequence of CHK2(I157T) (h) (human) (O96017 5-543 I157T limits assumed): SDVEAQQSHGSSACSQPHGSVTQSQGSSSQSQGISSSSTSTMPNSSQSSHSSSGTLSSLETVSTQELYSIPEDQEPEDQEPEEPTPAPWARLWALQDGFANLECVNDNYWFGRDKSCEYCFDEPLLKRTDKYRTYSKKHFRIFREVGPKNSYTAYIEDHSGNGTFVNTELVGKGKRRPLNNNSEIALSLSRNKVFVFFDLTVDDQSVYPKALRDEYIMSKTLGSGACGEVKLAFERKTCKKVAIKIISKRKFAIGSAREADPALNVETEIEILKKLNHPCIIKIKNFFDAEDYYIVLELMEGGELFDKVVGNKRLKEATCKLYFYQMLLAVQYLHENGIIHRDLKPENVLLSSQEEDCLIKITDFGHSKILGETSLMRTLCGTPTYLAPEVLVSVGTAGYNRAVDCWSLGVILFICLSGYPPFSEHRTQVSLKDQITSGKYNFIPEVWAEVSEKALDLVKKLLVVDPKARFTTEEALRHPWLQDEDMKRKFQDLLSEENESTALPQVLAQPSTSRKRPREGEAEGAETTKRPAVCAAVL
Sequence of Ron (h) (human) (Q04912 983-1400 limits assumed): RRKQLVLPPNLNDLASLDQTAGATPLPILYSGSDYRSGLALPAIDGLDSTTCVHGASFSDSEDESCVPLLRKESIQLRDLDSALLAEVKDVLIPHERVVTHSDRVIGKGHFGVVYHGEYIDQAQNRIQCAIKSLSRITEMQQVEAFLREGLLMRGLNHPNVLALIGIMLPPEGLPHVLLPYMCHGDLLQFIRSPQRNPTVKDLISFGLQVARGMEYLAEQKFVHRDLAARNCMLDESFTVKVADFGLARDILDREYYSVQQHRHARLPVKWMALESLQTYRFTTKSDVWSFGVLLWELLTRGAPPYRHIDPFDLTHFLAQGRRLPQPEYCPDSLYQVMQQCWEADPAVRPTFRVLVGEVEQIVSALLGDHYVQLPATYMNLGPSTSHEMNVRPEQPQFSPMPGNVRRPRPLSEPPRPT
Sequence of EphB1 (h) (human) (P54762 564-984 limits assumed): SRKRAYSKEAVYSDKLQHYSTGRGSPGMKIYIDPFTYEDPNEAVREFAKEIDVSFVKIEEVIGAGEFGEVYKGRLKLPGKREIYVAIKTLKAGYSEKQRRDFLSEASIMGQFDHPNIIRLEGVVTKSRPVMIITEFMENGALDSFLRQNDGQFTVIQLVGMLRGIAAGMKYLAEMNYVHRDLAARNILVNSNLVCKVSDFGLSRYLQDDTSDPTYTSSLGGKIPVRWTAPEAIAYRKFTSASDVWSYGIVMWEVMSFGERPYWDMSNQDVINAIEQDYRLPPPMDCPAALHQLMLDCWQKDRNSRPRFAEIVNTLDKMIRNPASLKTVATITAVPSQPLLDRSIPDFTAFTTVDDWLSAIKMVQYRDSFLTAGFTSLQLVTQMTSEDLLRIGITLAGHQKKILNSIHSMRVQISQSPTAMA
Sequence of FGFR2 (h) (human) (P21802 456-770 limits assumed): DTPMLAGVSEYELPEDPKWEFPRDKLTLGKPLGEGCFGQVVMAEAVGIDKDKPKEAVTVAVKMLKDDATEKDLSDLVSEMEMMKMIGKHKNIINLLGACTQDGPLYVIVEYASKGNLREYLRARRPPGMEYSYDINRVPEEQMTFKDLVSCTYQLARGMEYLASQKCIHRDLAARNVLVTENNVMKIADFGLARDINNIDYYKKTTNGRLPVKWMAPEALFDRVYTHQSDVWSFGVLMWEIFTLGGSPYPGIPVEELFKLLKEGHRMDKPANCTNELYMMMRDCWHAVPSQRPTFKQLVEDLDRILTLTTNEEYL

On to MMI-0300 (peptide), for which the % activity at 100 µM with PAK4 (h) (human) was determined as 94%; in the assay with EphB4 (h) (human) it was 44%; with Ron (h) (human), 93%; with PKCα (h) (human), 89%; in the assay with cKit(V654A) (h) (human), 134%; with TAO2 (h) (human), 70%. Further, the % activity at 100 µM in the assay with MLCK (h) (human) was found to be 2%; in the assay with JNK1α1 (h) (human), 97%; with FGFR2 (h) (human) it was 14%; in the assay with BTK(R28H) (h) (human) it was 74%; with CDK1/cyclinB (h) (human) it was 73%; with Ros (h) (human) it was 95%. Also, the % activity at 100 µM with LOK (h) (human) was determined as 37%; with MST2 (h) (human), 19%; with CHK2(I157T) (h) (human) it was 43%; with EphB1 (h) (human), 44%; with Lyn (h) (human), 69%; with AMPKα2 (h) (human), 54%. The % activity at 100 µM in the assay with Aurora-A (h) (human) is 92%; in assay [1] it was 3%.
